These results are taken from patent US5262522A, “Receptor for oncostatin M and leukemia inhibitory factor” (Immunex Corporation, priority 1991, dated 1993).

One assay deals with Recombinant human LIF. The assay is described as follows: LIF binding assay (phthalate oil separation, Scatchard) on transfected COS-7 cells. How it is done: Recombinant human LIF is expressed in yeast and purified to homogeneity essentially as described by Hopp, et al., Bio/Technology 6:1204 (1988). The purified protein is radiolabeled using a commercially available enzymobead radioiodination reagent (BioRad). In this procedure 10 μg LIF in 50 μl 0.2M sodium phosphate, pH 7.2, are combined with 50 μl enzymobead reagent, 2 mCi of sodium iodide in 20 μl of 0.05M sodium phosphate pH 7.0 and 10 μl of 2.5% β-D-glucose. After 10 minutes at 25° C., sodium azide (20 μl of 50 mM) and sodium metabisulfite (10 μl of 5 mg/ml) are added and incubation is continued for 5 min. at 25° C. The reaction mixture is fractionated by gel filtration on a 2 ml bed volume of Sephadex® G-25 (Sigma) equilibrated in Roswell Park Memorial Institute (RPMI) 1640 medium containing 2.5% (w/v) bovine serum albumin (BSA), 0.2% (w/v) sodium azide and 20 mM Hepes pH 7.4 (binding medium). […]
The cells were separated from unbound ^125 I-LIF by centrifugation for five minutes at 15,000×g in an Eppendorf microfuge. […] The radioactivity in both parts was then determined on a gamma counter. The determinations of both cell-bound and unbound radioactivity from the two 60 μl aliquots were averaged for subsequent calculations. […]

In a further assay the test system is oncostatin M. The experiment in a line: Oncostatin M binding assay (phthalate oil separation, Scatchard) on transfected COS-7 cells. Particulars: 125I-oncostatin M, compared with non-transfected COS-7 cells. The source says:
Oncostatin M may be purified from cells in which the protein is naturally found, or from cells transformed with an expression vector encoding oncostatin M. One source of oncostatin M is phorbol ester-treated U937 cells, as described by Zarling et al., PNAS U.S.A. 83:9739 (1986). Purification of recombinant oncostatin M is described by Linsley et al., J. Biol. Chem. 264:4282-4289 (1989), which is hereby incorporated by reference in its entirety.
Oncostatin M may be radiolabeled using any suitable conventional procedure, such as the radioiodination procedure employed to radiolabel LIF in Example 1. The radio-iodination of oncostatin M has also been described by Linsley et al., supra.
The resulting radiolabeled oncostatin M may be substituted for radiolabeled LIF (using the same concentrations and other reaction parameters) in the assay procedures described in Example 1 in order to detect proteins and cells that bind oncostatin M. An assay for binding of ^125 I-oncostatin M to cells is also described in Linsley et al., supra.
COS-7 cells transfected with vector(s) encoding gp130 or LIF-R were assayed for the ability to bind oncostatin M. In separate transfections, COS-7 cells were transfected with the following combinations of vectors. […]

B1: LIF-R: human leukemia inhibitory factor receptor fragment encoded by cDNA clone pHLIFR-65 (SEQ ID NO: 6), expressed on COS-7 cells (protein)
chain: QKKGAPHDLKCVTNNLQVWNCSWKAPSGTGRGTDYEVCIENRSRSCYQLEKTSIKIPALSHGDYEITINSLHDFGSSTSKFTLNEQNVSLIPDTPEILNLSADFSTSTLYLKWNDRGSVFPHRSNVIWEIKVLRKESMELVKLVTHNTTLNGKDTLHHWSWASDMPLECAIHFVEIRCYIDNLHFSGLEEWSDWSPVKNISWIPDSQTKVFPQDKVILVGSDITFCCVSQEKVLSALIGHTNCPLIHLDGENVAIKIRNISVSASSGTNVVFTTEDNIFGTVIFAGYPPDTPQQLNCETHDLKEIICSWNPGRVTALVGPRATSYTLVESFSGKYVRLKRAEAPTNESYQLLFQMLPNQEIYNFTLNAHNPLGRSQSTILVNITEKVYPHTPTSFKVKDINSTAVKLSWHLPGNFAKINFLCEIEIKKSNSVQEQRNVTIKGVENSSYLVALDKLNPYTLYTFRIRCSTETFWKWSKWSNKKQHLTTEASPSKGPDTWREWSSDGKNLIIYWKPLPINEANGKILSYNVSCSSDEETQSLSEIPDPQHKAEIRLDKNDYIISVVAKNSVGSSPPSKIASMEIPNDDLKIEQVVGMGKGILLTWHYDPNMTCDYVIKWCNSSRSEPCLMDWRKVPSNSTETVIESDEFRPGIRYNFFLYGCRNQGYQLLRSMIGYIEELAPIVAPNFTVEDTSADSILVKWEDIPVEELRGFLRGYLFYFGKGERDTSKMRVLESGRSDIKVKNITDISQKTLRIADLQGKTSYHLVLRAYTDGGVGPEKSMYVVTKENSVGLIIAILIPVAVAVIVGVVTSILCYRKREWIKETFYPDIPNPENCKALQFQKSVCEGSSALKTLEMNPCTPNNVEVLETRSAFPKIEDTEIISPVAERPEDRSDAEPENHVVVSYCPPIIEEEIPNPAADEAGGTAQVIYIDVQSMYQPQAKPEEKKKKSRSSRSKI
B1: the “binding of LIF after preincubation with oncostatin M” value in the assay on Recombinant human LIF (cells transfected with pHLIFR-65 and CAV, preincubated with non-radiolabeled oncostatin M (curve D)) was “essentially unchanged”. In addition, in the assay with oncostatin M, the “binding of oncostatin M” value is recorded as “did not bind oncostatin M in any significant amount above that bound by the non-transfected COS-7 cells”.

B2: gp130: truncated human gp130 polypeptide encoded by plasmid B10G (SEQ ID NO: 2), expressed on COS-7 cells (protein)
chain: ELLDPCGYISPESPVVQLHSNFTAVCVLKEKCMDYFHVNANYIVWKTNHFTIPKEQYTIINRTASSVTFTDIASLNIQLTCNILTFGQLEQNVYGITIISGLPPEKPKNLSCIVNEGKKMRCEWDGGRETHLETNFTLKSEWATHKFADCKAKRDTPTSCTVDYSTVYFVNIEVWVEAENALGKVTSDHINFDPVYKVKPNPPHNLSVINSEELSSILKLTWTNPSIKSVIILKYNIQYRTKDASTWSQIPPEDTASTRSSFTVQDLKPFTEYVFRIRCMKEDGKGYWSDWSEEASGITYEDRPSKAPSFWYKIDPSHTQGYRTVQLVWKTLPPFEANGKILDYEVTLTRWKSHLQNYTVNATKLTVNLTNDRYLATLTVRNLVGKSDAAVLTIPACDFQATHPVMDLKAFPKDNMLWVEWTTPRESVKKYILEWCVLSDKAPCITDWQQEDGTVHRTYLRGNLAESKCYLITVTPVYADGPGSPESIKAYLKQAPPSKGPTVRTKKVGKNEAVLEWDQLPVDVQNGFIRNYTIFYRTIIGNETAVNVDSSHTEYTLSSLTSDTLYMVRMAAYTDEGGKDGPEFTFTTPKFAQGEIEAIVVPVCLAFLLTTLLGVLFCFNKRDLIKKHIWPNVPDPSKSHIAQWSPHTPPRHNFNSKDQMYSDGNFTDVSVVEIEANDKKPFPEDL
As for B2, the “binding of LIF” value in the assay with Recombinant human LIF (125I-LIF, COS-7 cells, compared with non-transfected COS-7 cells) is given as “did not bind LIF in any measurable amount above the amount of binding to the non-transfected COS-7 cells”.
